Test results from the supplement of paper PMC10567573.

B1: KCNA3 (parent)
chain: GERVVINISGLRFETQLKTLCQFP
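Also: lentivirally expressed fusions sorted by FACS into six bins by GFP to DsRed ratio, PSI derived from sequencing read proportions per bin multiplied by bin number.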

Variants of: B1
Experiment: protein stability index of a GFP-peptide fusion (GPS, HEK-293T) (PSI 1-6); higher = more stable
Conditions: c terminus: a fixed tail appended
In the case of GERVVINISGLCFETQLKTLCQFP [R12C], the protein stability index is reported as 2.46. With GERVVINISGLDFETQLKTLCQFP [R12D] the protein stability index was 1.84. For GERVVINISGLKFETQLKTLCQFP [R12K], the protein stability index was 2.5. For GERVVINISGLLFETQLKTLCQFP [R12L], the protein stability index was 4.18. GERVVINISGLNFETQLKTLCQFP [R12N] gave a protein stability index of 2.85. In the case of GERVVINISGLPFETQLKTLCQFP [R12P], the protein stability index is reported as 1.45. GERVVINISGLQFETQLKTLCQFP [R12Q] showed a protein stability index of 2.21. In the case of GERVVINISGLSFETQLKTLCQFP [R12S], the protein stability index is reported as 1.48. With GERVVINISGLWFETQLKTLCQFP [R12W] the protein stability index was 2.37. GERVVINISGLYFETQLKTLCQFP [R12Y] showed a protein stability index of 2.61. Work on GERVVINISGLRAETQLKTLCQFP [F13A] yielded a protein stability index of 1.45. Work on GERVVINISGLRCETQLKTLCQFP [F13C] yielded a protein stability index of 2.83. Work on GERVVINISGLRDETQLKTLCQFP [F13D] yielded a protein stability index of 1.48. For GERVVINISGLREETQLKTLCQFP [F13E], the protein stability index was 2.14. Work on GERVVINISGLRGETQLKTLCQFP [F13G] yielded a protein stability index of 2.14. GERVVINISGLRIETQLKTLCQFP [F13I] gave a protein stability index of 2.7. With GERVVINISGLRKETQLKTLCQFP [F13K] the protein stability index was 1.67. Work on GERVVINISGLRLETQLKTLCQFP [F13L] yielded a protein stability index of 1.06. With GERVVINISGLRMETQLKTLCQFP [F13M] the protein stability index was 2.64. GERVVINISGLRNETQLKTLCQFP [F13N] showed a protein stability index of 1.26. GERVVINISGLRPETQLKTLCQFP [F13P] gave a protein stability index of 2.27. Work on GERVVINISGLRQETQLKTLCQFP [F13Q] yielded a protein stability index of 1.87. With GERVVINISGLRSETQLKTLCQFP [F13S] the protein stability index was 1.97. For GERVVINISGLRTETQLKTLCQFP [F13T], the protein stability index was 1.56. Work on GERVVINISGLRVETQLKTLCQFP [F13V] yielded a protein stability index of 2.58. With GERVVINISGLRFDTQLKTLCQFP [E14D] the protein stability index was 2.37. GERVVINISGLRFGTQLKTLCQFP [E14G] gave a protein stability index of 2.74. Work on GERVVINISGLRFHTQLKTLCQFP [E14H] yielded a protein stability index of 3.28. GERVVINISGLRFKTQLKTLCQFP [E14K] gave a protein stability index of 2.42. GERVVINISGLRFMTQLKTLCQFP [E14M] gave a protein stability index of 3.03. In the case of GERVVINISGLRFNTQLKTLCQFP [E14N], the protein stability index is reported as 2.08. In the case of GERVVINISGLRFPTQLKTLCQFP [E14P], the protein stability index is reported as 1. In the case of GERVVINISGLRFQTQLKTLCQFP [E14Q], the protein stability index is reported as 1.04. In the case of GERVVINISGLRFRTQLKTLCQFP [E14R], the protein stability index is reported as 1.89. For GERVVINISGLRFTTQLKTLCQFP [E14T], the protein stability index was 1.83. With GERVVINISGLRFVTQLKTLCQFP [E14V] the protein stability index was 3. With GERVVINISGLRFEEQLKTLCQFP [T15E] the protein stability index was 2.62. For GERVVINISGLRFEGQLKTLCQFP [T15G], the protein stability index was 4.2. For GERVVINISGLRFELQLKTLCQFP [T15L], the protein stability index was 3.24. For GERVVINISGLRFENQLKTLCQFP [T15N], the protein stability index was 3.66. For GERVVINISGLRFEQQLKTLCQFP [T15Q], the protein stability index was 2.31. For GERVVINISGLRFERQLKTLCQFP [T15R], the protein stability index was 2.69. GERVVINISGLRFEYQLKTLCQFP [T15Y] gave a protein stability index of 2.63. Work on GERVVINISGLRFETDLKTLCQFP [Q16D] yielded a protein stability index of 1.87. GERVVINISGLRFETFLKTLCQFP [Q16F] gave a protein stability index of 2.47. With GERVVINISGLRFETGLKTLCQFP [Q16G] the protein stability index was 2.49. GERVVINISGLRFETHLKTLCQFP [Q16H] showed a protein stability index of 2.53. Work on GERVVINISGLRFETMLKTLCQFP [Q16M] yielded a protein stability index of 4.05. With GERVVINISGLRFETNLKTLCQFP [Q16N] the protein stability index was 1.04. GERVVINISGLRFETPLKTLCQFP [Q16P] showed a protein stability index of 2. Variant GERVVINISGLRFETSLKTLCQFP [Q16S] has a protein stability index of 2.69. For GERVVINISGLRFETTLKTLCQFP [Q16T], the protein stability index was 1.39. GERVVINISGLRFETYLKTLCQFP [Q16Y] gave a protein stability index of 2.02. With GERVVINISGLRFETQAKTLCQFP [L17A] the protein stability index was 2.88. In the case of GERVVINISGLRFETQDKTLCQFP [L17D], the protein stability index is reported as 2.06. GERVVINISGLRFETQEKTLCQFP [L17E] showed a protein stability index of 1.87. GERVVINISGLRFETQHKTLCQFP [L17H] gave a protein stability index of 3.03. In the case of GERVVINISGLRFETQIKTLCQFP [L17I], the protein stability index is reported as 2.92. In the case of GERVVINISGLRFETQKKTLCQFP [L17K], the protein stability index is reported as 1.42. GERVVINISGLRFETQNKTLCQFP [L17N] gave a protein stability index of 2.04. With GERVVINISGLRFETQPKTLCQFP [L17P] the protein stability index was 2.58. In the case of GERVVINISGLRFETQRKTLCQFP [L17R], the protein stability index is reported as 1.87. For GERVVINISGLRFETQTKTLCQFP [L17T], the protein stability index was 2.85. With GERVVINISGLRFETQVKTLCQFP [L17V] the protein stability index was 2.92. In the case of GERVVINISGLRFETQLATLCQFP [K18A], the protein stability index is reported as 3.07. Work on GERVVINISGLRFETQLCTLCQFP [K18C] yielded a protein stability index of 1.92. In the case of GERVVINISGLRFETQLDTLCQFP [K18D], the protein stability index is reported as 3.02. With GERVVINISGLRFETQLETLCQFP [K18E] the protein stability index was 3.06. For GERVVINISGLRFETQLITLCQFP [K18I], the protein stability index was 3.07. GERVVINISGLRFETQLMTLCQFP [K18M] gave a protein stability index of 3.17. Work on GERVVINISGLRFETQLQTLCQFP [K18Q] yielded a protein stability index of 1.87. Variant GERVVINISGLRFETQLRTLCQFP [K18R] has a protein stability index of 2.29. Work on GERVVINISGLRFETQLSTLCQFP [K18S] yielded a protein stability index of 1.78. Variant GERVVINISGLRFETQLKALCQFP [T19A] has a protein stability index of 1.87. With GERVVINISGLRFETQLKCLCQFP [T19C] the protein stability index was 3.24. Variant GERVVINISGLRFETQLKELCQFP [T19E] has a protein stability index of 2. With GERVVINISGLRFETQLKFLCQFP [T19F] the protein stability index was 1.76. Variant GERVVINISGLRFETQLKHLCQFP [T19H] has a protein stability index of 1.78. With GERVVINISGLRFETQLKKLCQFP [T19K] the protein stability index was 1.45. GERVVINISGLRFETQLKMLCQFP [T19M] showed a protein stability index of 3.15. With GERVVINISGLRFETQLKNLCQFP [T19N] the protein stability index was 1.34. Variant GERVVINISGLRFETQLKPLCQFP [T19P] has a protein stability index of 1.49. For GERVVINISGLRFETQLKQLCQFP [T19Q], the protein stability index was 1.28. For GERVVINISGLRFETQLKRLCQFP [T19R], the protein stability index was 1.32. With GERVVINISGLRFETQLKTACQFP [L20A] the protein stability index was 2.24. For GERVVINISGLRFETQLKTCCQFP [L20C], the protein stability index was 1.39. GERVVINISGLRFETQLKTDCQFP [L20D] showed a protein stability index of 1.22. In the case of GERVVINISGLRFETQLKTGCQFP [L20G], the protein stability index is reported as 1.95. In the case of GERVVINISGLRFETQLKTICQFP [L20I], the protein stability index is reported as 1.56. GERVVINISGLRFETQLKTKCQFP [L20K] gave a protein stability index of 3.74. Variant GERVVINISGLRFETQLKTMCQFP [L20M] has a protein stability index of 2.22. Variant GERVVINISGLRFETQLKTNCQFP [L20N] has a protein stability index of 2.33. Variant GERVVINISGLRFETQLKTQCQFP [L20Q] has a protein stability index of 1.2. GERVVINISGLRFETQLKTRCQFP [L20R] gave a protein stability index of 2.84.
